Entries after “also recorded” stand apart in the source; their conditions may differ. Non-standard residues stand in square brackets, D forms with d. No end group written: not given here. Me2 = dimethyl-lysine (dimethyl-epsilon-NH2-L-lysine); Orn = NCCC[C@H](N)C(=O)O
Key:
biotinidase [1] = target: T1, biotinidase (Homo sapiens, UniProt P43251); assay: Enzymatic biotinylation of synthetic histone H2A and H2A.X peptides by biotinidase; assay type: biochemical; conditions: human plasma as source of biotinidase, 75 μmol/L biocytin, pH 8.0, 37° C., up to 45 minutes
T1 construct: 60 μL of human plasma; from tissue; host or cells: human plasma
T1 sequence (P43251 22-523): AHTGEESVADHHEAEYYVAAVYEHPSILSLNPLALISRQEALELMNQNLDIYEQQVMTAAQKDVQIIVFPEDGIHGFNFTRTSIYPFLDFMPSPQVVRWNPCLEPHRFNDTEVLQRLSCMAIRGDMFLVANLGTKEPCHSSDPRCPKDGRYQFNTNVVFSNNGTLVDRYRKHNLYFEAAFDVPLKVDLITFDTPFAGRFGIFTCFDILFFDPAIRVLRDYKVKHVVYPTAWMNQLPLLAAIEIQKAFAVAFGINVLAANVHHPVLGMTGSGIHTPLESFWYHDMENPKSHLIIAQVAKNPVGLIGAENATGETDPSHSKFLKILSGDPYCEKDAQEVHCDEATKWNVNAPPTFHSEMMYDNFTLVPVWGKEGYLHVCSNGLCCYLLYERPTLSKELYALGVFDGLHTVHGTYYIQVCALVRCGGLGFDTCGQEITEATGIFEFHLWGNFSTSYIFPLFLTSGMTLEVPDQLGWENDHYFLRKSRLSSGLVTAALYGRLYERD
From the text: In Examples described above, the inventors developed a procedure to identify amino acid residues in histones that are targets for biotinylation. […] Amino acid substitutions (e.g., lysine-to-alanine substitutions) in synthetic peptides are used to corroborate identification of biotinylation sites. In addition, amino acid modifications (e.g., acetylation of lysines) in peptides can be used to investigate the cross-talk between biotinylation of histones and other known modifications of histones.
Peptides from both the N- and C-terminal regions of histone H2A and H2A.X were included in the analysis of biotinylation sites. […] Reactions were quenched by adding an equal volume of Tricine gel loading buffer (Invitrogen, Carlsbad, Calif.).

biotinidase [2] = target: T1, biotinidase; assay: Enzymatic biotinylation of synthetic histone H3 peptides by biotinidase; assay type: biochemical; conditions: biotinidase and biocytin, 45 min

| Compound | enzymatic biotinylation by biotinidase, peptide-bound biotin probed with streptavidin peroxidase (biotinidase [1]) | enzymatic biotinylation by biotinidase, peptide-bound biotin probed with streptavidin-peroxidase (biotinidase [2]) |
| --- | --- | --- |
| K5A1-9: histone H2A N1-9, K5 substituted with alanine (SGRGAQGGK) [Peptide K5A1-9] | did not decrease biotinylation |  |
| K13,15A,T16S12-20: T16S12-20 with both lysine residues substituted with alanine (AAAASRSSR) | no biotinylation was detectable |  |
| SHHKAKGK [Peptide C122-129, histone H2A amino acids 122-129] | good target for biotinylation; also recorded: good substrate for biotinylation |  |
| K18,23A16-23: histone H3 amino acids 16 to 23, K18 and K23 substituted with alanine (PRAQLATA) |  | no binding of biotin was detectable |
| ATVGPKAPSG [Peptide C122-131, C-terminus of histone H2A.X, amino acids 122-131] | not biotinylated |  |
| K14A9-16: histone H3 amino acids 9 to 16, K14 substituted with alanine (KSTGGAAP) [Peptide K14A9-16] |  | heavily biotinylated |
| Q6T,K5A1-9: Q6T1-9 with K5 substituted with alanine (SGRGATGGK) | decreased biotinylation only moderately |  |
| AKAKSRSSR [Peptide T16S12-20, N-terminus of histone H2A.X, amino acids 12-20] | good targets for biotinylation; also recorded: biotinylated only moderately |  |
| AKAKTRSSR [Peptide N12-20, histone H2A amino acids 12-20] | not a good target; also recorded: poor target for biotinylation |  |
| K125,127,129A122-129: C122-129 with all lysine residues substituted with alanine (SHHAAAGA) | no biotinylation was detectable |  |
| K18A18-25: histone H3 amino acids 18-25, K18 substituted with alanine (AQLATKAA) [Peptide K18A18-25] |  | barely detectable |
| K13,15A12-20: histone H2A N12-20, both lysine residues substituted with alanine (AAAATRSSR) | no biotinylation was detectable |  |
| K4,9A1-9: histone H3 amino acids 1 to 9, K4 and K9 substituted by alanine (ARTAQTARA) |  | no binding of biotin was detectable |
| GGKARAKA [Peptide N7-14, histone H2A amino acids 7-14] | good target for biotinylation; also recorded: heavily biotinylated; also recorded: moderate target for biotinylation |  |
| TARASTGG [Peptide K9A6-13, histone H3 6-13, K9 substituted with alanine] |  | no biotinylation was observed |
| SEQ ID NO:76: histone H2A N7-14 with acetylation of K13 (GGKARAK(Ac)A) | decreased the biotinylation of K9 |  |
| N9-16: histone H3 amino acids 9-16, including K9 and K14 (KSTGGKAP; UniProt P68431 10-17, looked up, fragment) [Peptide N9-16] |  | relatively poor targets for biotinylation |
| GKKATQASQEY [Peptide C132-142, C-terminus of histone H2A.X, amino acids 132-142] | not biotinylated |  |
| NCCC[C@H](N)C(=O)O [ornithine] |  | not biotinylated |
| K4A1-9: histone H3 amino acids 1 to 9, K4 substituted with alanine (ARTAQTARK) [Peptide K4A1-9] |  | barely detectable |
| K23A16-23: histone H3 amino acids 16 to 23, K23 substituted with alanine (PRKQLATA) [Peptide K23A16-23] |  | weak |

| Compound | enzymatic biotinylation by biotinidase, peptide-bound biotin probed with streptavidin peroxidase (biotinidase [1]) | enzymatic biotinylation by biotinidase, peptide-bound biotin probed with streptavidin-peroxidase (biotinidase [2]) |
| --- | --- | --- |
| K127,129A122-129: C122-129 with K127 and K129 substituted with alanine (SHHAAAGA) | considerable decrease of biotinylation |  |
| K9A9-16: histone H3 amino acids 9 to 16, K9 substituted with alanine (ASTGGKAP) [Peptide K9A9-16] |  | poor target for biotinylation |
| N16-23: histone H3 amino acids 16-23, including K18 and K23 (PRKQLATK; UniProt P68431 17-24, looked up, fragment) [Peptide N16-23] |  | moderate target for biotinylation |
| K13A12-20: histone H2A N12-20, K13 substituted with alanine (AAAKTRSSR) [Peptide K13A12-20] | did not render K15 a good target |  |
| K13A,T16S12-20: T16S12-20 with K13 substituted with alanine (AAAKSRSSR) | No biotinylation was detectable |  |
| K15A,T16S12-20: T16S12-20 with K15 substituted with alanine (AKAASRSSR) | decreased moderately |  |
| K125,127A122-129: C122-129 with K125 and K127 substituted with alanine (SHHAAAGK) | decreased only moderately |  |
| K18,23A18-25: histone H3 amino acids 18-25, K18 and K23 substituted with alanine (AQLATAAA) |  | No biotinylation was detected |
| TARKSTGG [Peptide N6-13, native unmodified peptide, position 6-13 in histone H3] |  | moderate target for biotinylation |
| K5,9A1-9: histone H2A N1-9, both lysine residues substituted with alanines (SGRGAQGGA) | no biotinylation was detectable |  |
| TAAKSTGG [Peptide R8A6-13, histone H3 6-13, R8 substituted with alanine] |  | increased considerably |
| Q6T,K9A1-9: Q6T1-9 with K9 substituted with alanine (SGRGKTGGA) | substantially decreased biotinylation |  |
| TAOKSTGG (TA[Orn]KSTGG) [Peptide R8O6-13] |  | increased considerably |
| K9,14A9-16: histone H3 amino acids 9 to 16, K9 and K14 substituted with alanine (ASTGGAAP) |  | no binding of biotin was detectable |
| K125,129A122-129: C122-129 with K125 and K129 substituted with alanine (SHHAAKGA) | considerable decrease of biotinylation |  |
| K15A12-20: histone H2A N12-20, K15 substituted with alanine (AKAATRSSR) [Peptide K15A12-20] | good target for biotinylation |  |
| SGRGKTGGK [Peptide Q6T1-9, N-terminus of histone H2A.X, amino acids 1-9] | good targets for biotinylation |  |
| SEQ ID NO:74: histone H2A peptide containing acetylated K9 and free K5 (SGRGKTGGK(Ac)) | not a target for biotinylation |  |
| SEQ ID NO:73: histone H2A N1-9 with acetylation of K5 (SGRGK(Ac)TGGK) | moderate decrease |  |
| SEQ ID NO:75: histone H2A N7-14 with dimethylation of K13 (GGKARAK(Me2)A) | decreased the biotinylation of K9 |  |
